Target: HLA-A*02:01 (Homo sapiens, UniProt P04439, D140Y/D185E/D98H/E176V/E277Q/G131W/G231S/I119V/I121R/I166T/I218V/L300P/L318F/N151K/N90K/P208A/P217A/Q86G/Q94H/R138H/R169H/T345S)
Assay: MHC binding assay: UV-ligand exchange with β2m ELISA (peptide exchange yield)
Conditions: MHC class I binding score; binding to HLA-A*02:01 ranged by peptide exchange yield (UV-ligand exchange, β2m ELISA)
Description: Candidate peptides for T cell based therapies according to the present invention were further tested for their MHC binding capacity (affinity). The individual peptide-MHC complexes were produced by UV-ligand exchange, where a UV-sensitive peptide is cleaved upon UV-irradiation, and exchanged with the peptide of interest as analyzed. Only peptide candidates that can effectively bind and stabilize the peptide-receptive MHC molecules prevent dissociation of the MHC complexes. To determine the yield of the exchange reaction, an ELISA was performed based on the detection of the light chain (β2m) of stabilized MHC complexes. The assay was performed as generally described in Rodenko et al. (Rodenko et al., 2006).
96 well MAXISorp plates (NUNC) were coated over night with 2 ug/ml streptavidin in PBS at room temperature, washed 4× and blocked for 1 h at 37° C. in 2% BSA containing blocking buffer. Refolded HLA-A*02:01/MLA-001 monomers served as standards, covering the range of 15-500 ng/ml. Peptide-MHC monomers of the UV-exchange reaction were diluted 100 fold in blocking buffer. Samples were incubated for 1 h at 37° C., washed four times, incubated with 2 ug/ml HRP conjugated anti-β2m for 1 h at 37° C., washed again and detected with TMB solution that is stopped with […]. Absorption was measured at 450 nm. Candidate peptides that show a high exchange yield (preferably higher than 50%, most preferred higher than 75%) are generally preferred for a generation and production of antibodies or fragments thereof, and/or T cell receptors or fragments thereof, as they show sufficient avidity to the MHC molecules and prevent dissociation of the MHC complexes.

Substance	Peptide Exchange
169 (TLLLGLTEV; listed as Homo sapiens) [compound 169]	″+++″ (≥50 = +++)
173 (TVIENIHTI; listed as Homo sapiens) [compound 173]	″++″ (≥20% = ++)
175 (FTVPRVVAV; listed as Homo sapiens) [compound 175]	″+++″ (≥50 = +++)
176 (VLAEQNIIPSA; listed as Homo sapiens) [compound 176]	″+++″ (≥50 = +++)
177 (VLDDRELLL; listed as Homo sapiens) [compound 177]	″+++″ (≥50 = +++)
178 (VLFFNVQEV; listed as Homo sapiens) [compound 178]	″+++″ (≥50 = +++)
179 (VLLGLEMTL; listed as Homo sapiens) [compound 179]	″+++″ (≥50 = +++)
180 (LLKDGPEIGL; listed as Homo sapiens) [compound 180]	″++″ (≥20% = ++)
182 (VLLSVPGPPV; listed as Homo sapiens) [compound 182]	″+++″ (≥50 = +++)
183 (VLMPTVYQQGV; listed as Homo sapiens) [compound 183]	″+++″ (≥50 = +++)
185 (VMDDQRDLI; listed as Homo sapiens) [compound 185]	″++″ (≥20% = ++)
186 (VMDPTKILI; listed as Homo sapiens) [compound 186]	″++++″ (≥75% = ++++)
188 (VMGDIPAAV; listed as Homo sapiens) [compound 188]	″++″ (≥20% = ++)
189 (VMLEMTPEL; listed as Homo sapiens) [compound 189]	″+++″ (≥50 = +++)
190 (VVMGTVPRL; listed as Homo sapiens) [compound 190]	″+++″ (≥50 = +++)
191 (YIFDGSDGGV; listed as Homo sapiens) [compound 191]	″+++″ (≥50 = +++)
194 (YLDNVLAEL; listed as Homo sapiens) [compound 194]	″++++″ (≥75% = ++++)
196 (YLLLQTYVL; listed as Homo sapiens) [compound 196]	″+″ (≥10% = +)
198 (YLTFLPAEV; listed as Homo sapiens) [compound 198]	″+++″ (≥50 = +++)
204 (GLLQINDKIAL; listed as Homo sapiens) [compound 204]	″+++″ (≥50 = +++)
205 (GLSQANFTL; listed as Homo sapiens) [compound 205]	″+++″ (≥50 = +++)
206 (HMQDVRVLL; listed as Homo sapiens) [compound 206]	″+++″ (≥50 = +++)
208 (ILLKTEGINL; listed as Homo sapiens) [compound 208]	″+++″ (≥50 = +++)

Substance	Peptide Exchange
210 (KLLVQDFFL; listed as Homo sapiens) [compound 210]	″+++″ (≥50 = +++)
211 (LIDVKPLGV; listed as Homo sapiens) [compound 211]	″+++″ (≥50 = +++)
216 (WLAGDVPAA; listed as Homo sapiens) [compound 216]	″+++″ (≥50 = +++)
217 (ALDEPPYLTV; listed as Homo sapiens) [compound 217]	″+++″ (≥50 = +++)
219 (ALLNLLESA; listed as Homo sapiens) [compound 219]	″+++″ (≥50 = +++)
221 (ALVSTIIMV; listed as Homo sapiens) [compound 221]	″+″ (≥10% = +)
223 (ALWVSQPPEI; listed as Homo sapiens) [compound 223]	″+++″ (≥50 = +++)
224 (AMEALVVEV; listed as Homo sapiens) [compound 224]	″+++″ (≥50 = +++)
225 (ILQERELLPV; listed as Homo sapiens) [compound 225]	″+++″ (≥50 = +++)
226 (AMNISVPQV; listed as Homo sapiens) [compound 226]	″+++″ (≥50 = +++)
227 (FLAEASVMTQL; listed as Homo sapiens) [compound 227]	″+++″ (≥50 = +++)
229 (FLLNLQNCHL; listed as Homo sapiens) [compound 229]	″++++″ (≥75% = ++++)
231 (FLYIRQLAI; listed as Homo sapiens) [compound 231]	″+++″ (≥50 = +++)
232 (FMHQIIDQV; listed as Homo sapiens) [compound 232]	″++++″ (≥75% = ++++)
233 (GIIDINVRL; listed as Homo sapiens) [compound 233]	″++″ (≥20% = ++)
234 (GLDDAEYAL; listed as Homo sapiens) [compound 234]	″++″ (≥20% = ++)
236 (GLLESGRHYL; listed as Homo sapiens) [compound 236]	″+++″ (≥50 = +++)
237 (GLQENLDVVV; listed as Homo sapiens) [compound 237]	″++++″ (≥75% = ++++)
238 (GLVETELQL; listed as Homo sapiens) [compound 238]	″+++″ (≥50 = +++)
239 (ILAGEMLSV; listed as Homo sapiens) [compound 239]	″+++″ (≥50 = +++)
242 (ILLGIQELL; listed as Homo sapiens) [compound 242]	″+++″ (≥50 = +++)
243 (ILPTLEKELFL; listed as Homo sapiens) [compound 243]	″+++″ (≥50 = +++)
247 (KLKDRLPSI; listed as Homo sapiens) [compound 247]	″++″ (≥20% = ++)

Continued, values first:

Peptide Exchange	Substance
″+++″ (≥50 = +++)	170 (TLTFRVETV; listed as Homo sapiens) [compound 170]
″+++″ (≥50 = +++)	171 (TLVPPAALISI; listed as Homo sapiens) [compound 171]
″+++″ (≥50 = +++)	172 (TLYDMLASI; listed as Homo sapiens) [compound 172]
″+++″ (≥50 = +++)	174 (VLAELPIIVV; listed as Homo sapiens) [compound 174]
″+++″ (≥50 = +++)	181 (VLLSIPFVSV; listed as Homo sapiens) [compound 181]
″+++″ (≥50 = +++)	184 (VLSHNLYTV; listed as Homo sapiens) [compound 184]
″++++″ (≥75% = ++++)	187 (VMDTHLVNI; listed as Homo sapiens) [compound 187]
″+++″ (≥50 = +++)	193 (YLDLSNNRL; listed as Homo sapiens) [compound 193]
″++++″ (≥75% = ++++)	195 (YLGGFALSV; listed as Homo sapiens) [compound 195]
″++++″ (≥75% = ++++)	199 (YLVELSSLL; listed as Homo sapiens) [compound 199]
″+++″ (≥50 = +++)	203 (ALLSSQLAL; listed as Homo sapiens) [compound 203]
″+++″ (≥50 = +++)	207 (IIADLDTTIMFA; listed as Homo sapiens) [compound 207]
″+++″ (≥50 = +++)	209 (ILQAELPSL; listed as Homo sapiens) [compound 209]
″+++″ (≥50 = +++)	214 (RLQELTEKL; listed as Homo sapiens) [compound 214]
″+++″ (≥50 = +++)	215 (VMQDIVYKL; listed as Homo sapiens) [compound 215]
″++″ (≥20% = ++)	218 (ALGEEWKGYVV; listed as Homo sapiens) [compound 218]
″+++″ (≥50 = +++)	222 (ALWELSLKI; listed as Homo sapiens) [compound 222]
″+++″ (≥50 = +++)	228 (FLGGLSPGV; listed as Homo sapiens) [compound 228]
″+++″ (≥50 = +++)	230 (FLQDSKVIFV; listed as Homo sapiens) [compound 230]
″+++″ (≥50 = +++)	235 (GLDDLLLFL; listed as Homo sapiens) [compound 235]
″+++″ (≥50 = +++)	241 (ILGDILLKV; listed as Homo sapiens) [compound 241]
″+++″ (≥50 = +++)	244 (ILQALAVHL; listed as Homo sapiens) [compound 244]
″++++″ (≥75% = ++++)	245 (KIMDYSLLLGV; listed as Homo sapiens) [compound 245]
″++″ (≥20% = ++)	246 (KLDETGVAL; listed as Homo sapiens) [compound 246]
″++″ (≥20% = ++)	248 (KTVEPPISQV; listed as Homo sapiens) [compound 248]
